From patent US20250019440A1 (Zymeworks, published 2025) come the findings set out here.

Positions count from the first letter of the chain named. In names and notes the source's numbering stands.

The target in experiment [1] is T1, CD3 on T cells (Homo sapiens (Human), UniProt P07766 23-207; P04234 22-171; P09693 23-182). As to the kind of experiment: cell-based or functional assay.
The target in a further experiment is PD-L1 on cells (UniProt Q9NZQ7 19-290, limits assumed). As to the kind of experiment: cell-based or functional assay.
Experiment [2] deals with T1, CD3 on T cells. As to the kind of experiment: cell-based or functional assay. The source holds these as a separate data set.
The target in a further experiment is T2, Human PD-L1 (human, UniProt Q9NZQ7 19-239).
T2 construct: Amine-coupled to a CM5 chip for SPR; also called recombinant human PD-L1
In words: SPR, PD-L1 amine-coupled, variant as analyte. In general terms: Surface plasmon resonance follows binding to a sensor surface in real time, without labels.

For a further experiment, the target named is Human CD3 (recombinant) (human). In words: SPR, CD3 amine-coupled, variant as analyte, 1:1 model.
Chain of Human CD3 (recombinant) (human) (chain, as listed by the source): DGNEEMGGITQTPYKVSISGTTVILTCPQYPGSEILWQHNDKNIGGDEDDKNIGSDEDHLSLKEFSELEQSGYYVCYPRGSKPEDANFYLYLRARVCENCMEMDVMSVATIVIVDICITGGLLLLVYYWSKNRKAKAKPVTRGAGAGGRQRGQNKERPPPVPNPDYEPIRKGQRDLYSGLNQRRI

T1 sequence (P07766 23-207 limits assumed, chain 1 of 3): as the sequence (chain, as listed by the source) above
T1 sequence (P04234 22-171 limits assumed, chain 2 of 3): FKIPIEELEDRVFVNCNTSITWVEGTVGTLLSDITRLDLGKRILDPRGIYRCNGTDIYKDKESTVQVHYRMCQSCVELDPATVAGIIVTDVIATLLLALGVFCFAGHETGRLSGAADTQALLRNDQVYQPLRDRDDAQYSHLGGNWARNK
T1 sequence (P09693 23-182 limits assumed, chain 3 of 3): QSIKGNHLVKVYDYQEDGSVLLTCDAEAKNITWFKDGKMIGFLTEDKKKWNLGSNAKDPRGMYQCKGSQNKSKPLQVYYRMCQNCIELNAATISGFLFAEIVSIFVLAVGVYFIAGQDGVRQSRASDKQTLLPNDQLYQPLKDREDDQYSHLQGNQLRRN
Chain of PD-L1 on cells (Q9NZQ7 19-290 limits assumed): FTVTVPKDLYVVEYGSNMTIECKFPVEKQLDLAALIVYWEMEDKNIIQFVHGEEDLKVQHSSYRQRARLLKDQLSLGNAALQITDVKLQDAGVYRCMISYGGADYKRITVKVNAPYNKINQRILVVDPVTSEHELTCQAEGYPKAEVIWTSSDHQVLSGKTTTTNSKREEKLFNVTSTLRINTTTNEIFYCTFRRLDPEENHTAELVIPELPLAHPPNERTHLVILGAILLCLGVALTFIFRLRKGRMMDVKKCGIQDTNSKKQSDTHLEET
T2 sequence (Q9NZQ7 19-239 limits assumed): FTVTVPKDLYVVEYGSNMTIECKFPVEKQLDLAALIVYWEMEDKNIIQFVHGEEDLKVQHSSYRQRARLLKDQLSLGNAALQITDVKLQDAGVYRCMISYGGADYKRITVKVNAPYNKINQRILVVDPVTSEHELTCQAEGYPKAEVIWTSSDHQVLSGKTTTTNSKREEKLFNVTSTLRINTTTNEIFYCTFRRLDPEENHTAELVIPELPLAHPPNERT

B1: v39009 (bispecific) (other)
heavy chain 1 (H1): EVQLVESGGGLVQPGGSLRLSCAASGVTFNYYGMSWIRQAPGKGLEWVASITSSGGRIYYPDSVKGRFTISRENTQKTLYLQMNSLRAEDTAVYYCTLDGRDGWVAYWGQGTLVTVSSASTKGPSVFPLAPSSKSTSGGTAALGCLVKDYFPEPVTVSWNSGALTSGVHTFPAVLQSSGLYSLSSVVTVPSSSLGTQTYICNVNHKPSNTKVDKKVEPKSCDKTHTCPPCPAPEAAGGPSVFLFPPKPKDTLMISRTPEVTCVVVSVSHEDPEVKFNWYVDGVEVHNAKTKPREEQYNSTYRVVSVLTVLHQDWLNGKEYKCKVSNKALPAPIEKTISKAKGQPREPQVYVYPPSRDELTKNQVSLTCLVKGFYPSDIAVEWESNGQPENNYKTTPPVLDSDGSFALVSKLTVDKSRWQQGNVFSCSVMHEALHNHYTQKSLSLSPGGGGGSGQVQLVESGGGLVQPGGSLRLSCSVSGIDLSSNPMIWVRQAPGKGLQYIGIIDTDGSTYYADWAKGRFTISKDSTTVYLQINSPRAEDTAVYYCARRLHGSSNGYYDDLWGQGTLVTVSSGGGGSGGGGSGGGGSGGGGSDGQMTQSPSSVSASVGDRVTITCQASQSIYSYLSWYQQKPGQRPKLLIYKASTLASGVPSRFSGSGSGTDFTLTISSVQPEDFATYYCQQGYTVTNVDKNTFGGGTKVEIK
light chain (L1): NFMLTQPHSVSESPGKTVTISCKRNTGNIGSNYVNWYQQHEGSSPTTIIYRNDKRPDGVSDRFSGSIDRSSKSASLTISNLKTEDEADYFCQSYSSGFIFGGGTKLTVLGQPKAAPSVTLFPPSSEELQANKATLVCLISDFYPGAVTVAWKADSSPVKAGVETTTPSKQSNNKYAASSYLSLTPEQWKSHRSYSCQVTHEGSTVEKTVAPTECSGGGGSGDRPWNPPTFSPALLVVTEGDNATFTCSFSNTSESFVLNWYRMSPSNQTDALAAFPEDRSQPGQDARFRVTQLPNGRDFHMSVVRARRNDSGTYLCGAASLAPKAQIKESLRAELRVTE
heavy chain 2 (H2): QVQLVESGGGLVQPGGSLRLSCSVSGIDLSSNPMIWVRQAPGKGLQYIGIIDTDGSTYYADWAKGRFTISKDSTTVYLQINSPRAEDTAVYYCARRLHGSSNGYYDDLWGQGTLVTVSSGGGGSGGGGSGGGGSGGGGSDGQMTQSPSSVSASVGDRVTITCQASQSIYSYLSWYQQKPGQRPKLLIYKASTLASGVPSRFSGSGSGTDFTLTISSVQPEDFATYYCQQGYTVTNVDKNTFGGGTKVEIKAAEPKSSDKTHTCPPCPAPEAAGGPSVFLFPPKPKDTLMISRTPEVTCVVVSVSHEDPEVKFNWYVDGVEVHNAKTKPREEQYNSTYRVVSVLTVLHQDWLNGKEYKCKVSNKALPAPIEKTISKAKGQPREPQVYVLPPSRDELTKNQVSLLCLVKGFYPSDIAVEWESNGQPENNYLTWPPVLDSDGSFFLYSKLTVDKSRWQQGNVFSCSVMHEALHNHYTQKSLSLSPG
With B1, in the experiment with CD3 on T cells [1], the “EC50 (read off the curve); hybrid PD-1/PD-L1 reporter gene assay, delta RLU, PD-1+ Jurkat T cells with SNU-620 cells, bottom right graph” value was approximately 50 pM and the “EC50 (read off the curve); hybrid PD-1/PD-L1 reporter gene assay, delta RLU, PD-1+ Jurkat T cells with SNU-620 cells, bottom right graph; v39009 varied in the presence of atezolizumab” value was approximately 40 pM.

B2: v39004 - A132L (other)
heavy chain 1 (H1): B1 heavy chain 1 (H1)
light chain (L1): NFMLTQPHSVSESPGKTVTISCKRNTGNIGSNYVNWYQQHEGSSPTTIIYRNDKRPDGVSDRFSGSIDRSSKSASLTISNLKTEDEADYFCQSYSSGFIFGGGTKLTVLGQPKAAPSVTLFPPSSEELQANKATLVCLISDFYPGAVTVAWKADSSPVKAGVETTTPSKQSNNKYAASSYLSLTPEQWKSHRSYSCQVTHEGSTVEKTVAPTECS
heavy chain 2 (H2): QVQLVESGGGLVQPGGSLRLSCSVSGIDLSSNPMIWVRQAPGKGLQYIGIIDTDGSTYYADWAKGRFTISKDSTTVYLQINSPRAEDTAVYYCARRLHGSSNGYYDDLWGQGTLVTVSSGGGGSGGGGSGGGGSGGGGSDGQMTQSPSSVSASVGDRVTITCQASQSIYSYLSWYQQKPGQRPKLLIYKASTLASGVPSRFSGSGSGTDFTLTISSVQPEDFATYYCQQGYTVTNVDKNTFGGGTKVEIKAAEPKSSDKTHTCPPCPAPEAAGGPSVFLFPPKPKDTLMISRTPEVTCVVVSVSHEDPEVKFNWYVDGVEVHNAKTKPREEQYNSTYRVVSVLTVLHQDWLNGKEYKCKVSNKALPAPIEKTISKAKGQPREPQVYVLPPSRDELTKNQVSLLCLVKGFYPSDIAVEWESNGQPENNYLTWPPVLDSDGSFFLYSKLTVDKSRWQQGNVFSCSVMHEALHNHYTQKSLSLSPGGGGGSGDRPWNPPTFSPALLVVTEGDNATFTCSFSNTSESFVLNWYRMSPSNQTDKLAAFPEDRSQPGQDARFRVTQLPNGRDFHMSVVRARRNDSGTYLCGAISLAPKLQIKESLRAELRVTE
Take B2: the “EC50 (read off the curve); hybrid PD-1/PD-L1 reporter gene assay, delta RLU, PD-1+ Jurkat T cells with SNU-620 cells, bottom graph; composite signal of CD3 engagement and PD-1:PD-L1 blockade” value with PD-L1 on cells is approximately 40 pM.

B3: v39000 - A132L (other)
heavy chain 1 (H1): B1 heavy chain 1 (H1)
light chain (L1): B2 light chain (L1)
heavy chain 2 (H2): NPPTFSPALLVVTEGDNATFTCSFSNTSESFVLNWYRMSPSNQTDKLAAFPEDRSQPGQDARFRVTQLPNGRDFHMSVVRARRNDSGTYLCGAISLAPKLQIKESLRAELRVTEGGGGSGQVQLVESGGGLVQPGGSLRLSCSVSGIDLSSNPMIWVRQAPGKGLQYIGIIDTDGSTYYADWAKGRFTISKDSTTVYLQINSPRAEDTAVYYCARRLHGSSNGYYDDLWGQGTLVTVSSGGGGSGGGGSGGGGSGGGGSDGQMTQSPSSVSASVGDRVTITCQASQSIYSYLSWYQQKPGQRPKLLIYKASTLASGVPSRFSGSGSGTDFTLTISSVQPEDFATYYCQQGYTVTNVDKNTFGGGTKVEIKAAEPKSSDKTHTCPPCPAPEAAGGPSVFLFPPKPKDTLMISRTPEVTCVVVSVSHEDPEVKFNWYVDGVEVHNAKTKPREEQYNSTYRVVSVLTVLHQDWLNGKEYKCKVSNKALPAPIEKTISKAKGQPREPQVYVLPPSRDELTKNQVSLLCLVKGFYPSDIAVEWESNGQPENNYLTWPPVLDSDGSFFLYSKLTVDKSRWQQGNVFSCSVMHEALHNHYTQKSLSLSPG
Regarding B3, the “EC50 (read off the curve); hybrid PD-1/PD-L1 reporter gene assay, delta RLU, PD-1+ Jurkat T cells with SNU-620 cells, top right graph; composite signal of CD3 engagement and PD-1:PD-L1 blockade” value with PD-L1 on cells was approximately 40 pM.

B4: v39001 (bispecific) (other)
heavy chain 1 (H1): B1 heavy chain 1 (H1)
light chain (L1): B2 light chain (L1)
heavy chain 2 (H2): B3 heavy chain 2 (H2) with K46A, I94A, L100A
As for B4, in the experiment with CD3 on T cells [2], the “EC50 (read off the curve); hybrid PD-1/PD-L1 reporter gene assay, delta RLU, PD-1+ Jurkat T cells with SNU-620 cells, top right graph” value is approximately 50 pM.

B5: v39005 (bispecific) (other)
heavy chain 1 (H1): B1 heavy chain 1 (H1)
light chain (L1): B2 light chain (L1)
heavy chain 2 (H2): B2 heavy chain 2 (H2) with K539A, I587A, L593A
On to B5, for which, in the experiment with CD3 on T cells [2], the “EC50 (read off the curve); hybrid PD-1/PD-L1 reporter gene assay, delta RLU, PD-1+ Jurkat T cells with SNU-620 cells, bottom graph” value is approximately 50 pM.

B6: v38424 (other)
heavy 1: EVQLVESGGGLVQPGGSLRLSCAASGVTFNYYGMSWIRQAPGKGLEWVASITSSGGRIYYPDSVKGRFTISRENTQKTLYLQMNSLRAEDTAVYYCTLDGRDGWVAYWGQGTLVTVSSASTKGPSVFPLAPSSKSTSGGTAALGCLVKDYFPEPVTVSWNSGALTSGVHTFPAVLQSSGLYSLSSVVTVPSSSLGTQTYICNVNHKPSNTKVDKKVEPKSCDKTHTCPPCPAPEAAGGPSVFLFPPKPKDTLMISRTPEVTCVVVSVSHEDPEVKFNWYVDGVEVHNAKTKPREEQYNSTYRVVSVLTVLHQDWLNGKEYKCKVSNKALPAPIEKTISKAKGQPREPQVYVYPPSRDELTKNQVSLTCLVKGFYPSDIAVEWESNGQPENNYKTTPPVLDSDGSFALVSKLTVDKSRWQQGNVFSCSVMHEALHNHYTQKSLSLSPGGGGGSGDRPWNPPTFSPALLVVTEGDNATFTCSFSNTSESFVLNWYRMSPSNQTDALAAFPEDRSQPGQDARFRVTQLPNGRDFHMSVVRARRNDSGTYLCGAASLAPKAQIKESLRAELRVTE
light: B2 light chain (L1)
heavy 2: B1 heavy chain 2 (H2)
notes: CD3 Fab x Cldn18.2 scFv Fc, attenuated (KO) PD-1 attached to HC1 (C-term)
Regarding B6, the binding result with Human PD-L1 was “no binding”. Moreover, in the experiment with Human CD3 (recombinant), the Kd amounted to 37000 pM.

For orientation: Kd means the constant that tells how readily two partners part at equilibrium.
